{"source": "the supplement of paper PMC10567573", "parents": {"B1": {"name": "CDC25A (parent)", "chain": "KKFRTKSRTWAGEKSKREMYSRLK"}, "B2": {"name": "PTPLAD1 (parent)", "chain": "YINFRHLYKQRRRRYGQKKKKIH"}}, "data": [{"variants_of": "B1", "test": "protein stability index of a GFP-peptide fusion (GPS, HEK-293T) (PSI 1-6); higher = more stable", "conditions": "c terminus: a fixed tail appended", "values": [{"variant": "KKTRTKSRTWAGEKSKREMYSRLK", "protein stability index": 3.59}, {"variant": "KKCRTKSRTWAGEKSKREMYSRLK", "protein stability index": 3.22}, {"variant": "KKMRTKSRTWAGEKSKREMYSRLK", "protein stability index": 3.61}, {"variant": "KKIRTKSRTWAGEKSKREMYSRLK", "protein stability index": 3.06}, {"variant": "KKLRTKSRTWAGEKSKREMYSRLK", "protein stability index": 3.49}, {"variant": "KKGRTKSRTWAGEKSKREMYSRLK", "protein stability index": 3.49}, {"variant": "KKPRTKSRTWAGEKSKREMYSRLK", "protein stability index": 2.85}, {"variant": "KKRRTKSRTWAGEKSKREMYSRLK", "protein stability index": 3.51}, {"variant": "KKHRTKSRTWAGEKSKREMYSRLK", "protein stability index": 3.1}, {"variant": "KKYRTKSRTWAGEKSKREMYSRLK", "protein stability index": 3}, {"variant": "KKSRTKSRTWAGEKSKREMYSRLK", "protein stability index": 3.48}, {"variant": "KKARTKSRTWAGEKSKREMYSRLK", "protein stability index": 3.28}, {"variant": "KKWRTKSRTWAGEKSKREMYSRLK", "protein stability index": 3.48}, {"variant": "KKKRTKSRTWAGEKSKREMYSRLK", "protein stability index": 3.16}, {"variant": "KKNRTKSRTWAGEKSKREMYSRLK", "protein stability index": 3.12}, {"variant": "KKFRCKSRTWAGEKSKREMYSRLK", "protein stability index": 2.87}, {"variant": "KKFRAKSRTWAGEKSKREMYSRLK", "protein stability index": 2.15}, {"variant": "KKFREKSRTWAGEKSKREMYSRLK", "protein stability index": 3.37}, {"variant": "KKFRKKSRTWAGEKSKREMYSRLK", "protein stability index": 3.12}, {"variant": "KKFRPKSRTWAGEKSKREMYSRLK", "protein stability index": 2.39}, {"variant": "KKFRMKSRTWAGEKSKREMYSRLK", "protein stability index": 2.62}, {"variant": "KKFRIKSRTWAGEKSKREMYSRLK", "protein stability index": 2.5}, {"variant": "KKFRGKSRTWAGEKSKREMYSRLK", "protein stability index": 3.33}, {"variant": "KKFRNKSRTWAGEKSKREMYSRLK", "protein stability index": 3.56}, {"variant": "KKFRHKSRTWAGEKSKREMYSRLK", "protein stability index": 2.81}, {"variant": "KKFRFKSRTWAGEKSKREMYSRLK", "protein stability index": 3.25}, {"variant": "KKFATKSRTWAGEKSKREMYSRLK", "protein stability index": 2.6}, {"variant": "KKFVTKSRTWAGEKSKREMYSRLK", "protein stability index": 3.79}, {"variant": "KKFHTKSRTWAGEKSKREMYSRLK", "protein stability index": 3.6}, {"variant": "KKFTTKSRTWAGEKSKREMYSRLK", "protein stability index": 3.37}, {"variant": "KKFLTKSRTWAGEKSKREMYSRLK", "protein stability index": 2.47}, {"variant": "KKFQTKSRTWAGEKSKREMYSRLK", "protein stability index": 3.86}, {"variant": "KKFPTKSRTWAGEKSKREMYSRLK", "protein stability index": 3.09}, {"variant": "KKFDTKSRTWAGEKSKREMYSRLK", "protein stability index": 3.04}, {"variant": "KKFYTKSRTWAGEKSKREMYSRLK", "protein stability index": 3.63}, {"variant": "KKFNTKSRTWAGEKSKREMYSRLK", "protein stability index": 3.2}, {"variant": "KKFCTKSRTWAGEKSKREMYSRLK", "protein stability index": 3.02}, {"variant": "KKFKTKSRTWAGEKSKREMYSRLK", "protein stability index": 3.18}, {"variant": "KKFETKSRTWAGEKSKREMYSRLK", "protein stability index": 3.76}, {"variant": "KKFWTKSRTWAGEKSKREMYSRLK", "protein stability index": 2.71}, {"variant": "KKFMTKSRTWAGEKSKREMYSRLK", "protein stability index": 3.46}, {"variant": "KKFSTKSRTWAGEKSKREMYSRLK", "protein stability index": 2.42}, {"variant": "KKFITKSRTWAGEKSKREMYSRLK", "protein stability index": 2.3}, {"variant": "KKFFTKSRTWAGEKSKREMYSRLK", "protein stability index": 2.71}, {"variant": "KKFGTKSRTWAGEKSKREMYSRLK", "protein stability index": 2.5}, {"variant": "KIFRTKSRTWAGEKSKREMYSRLK", "protein stability index": 2.38}, {"variant": "KPFRTKSRTWAGEKSKREMYSRLK", "protein stability index": 2.6}, {"variant": "KHFRTKSRTWAGEKSKREMYSRLK", "protein stability index": 1.93}, {"variant": "KWFRTKSRTWAGEKSKREMYSRLK", "protein stability index": 2.63}, {"variant": "KYFRTKSRTWAGEKSKREMYSRLK", "protein stability index": 3.09}, {"variant": "KGFRTKSRTWAGEKSKREMYSRLK", "protein stability index": 4.12}, {"variant": "KCFRTKSRTWAGEKSKREMYSRLK", "protein stability index": 2.38}, {"variant": "KSFRTKSRTWAGEKSKREMYSRLK", "protein stability index": 3.06}, {"variant": "KDFRTKSRTWAGEKSKREMYSRLK", "protein stability index": 3.22}, {"variant": "KMFRTKSRTWAGEKSKREMYSRLK", "protein stability index": 1.76}, {"variant": "KEFRTKSRTWAGEKSKREMYSRLK", "protein stability index": 3.27}, {"variant": "EKFRTKSRTWAGEKSKREMYSRLK", "protein stability index": 3.74}, {"variant": "AKFRTKSRTWAGEKSKREMYSRLK", "protein stability index": 3.59}, {"variant": "WKFRTKSRTWAGEKSKREMYSRLK", "protein stability index": 2.37}, {"variant": "RKFRTKSRTWAGEKSKREMYSRLK", "protein stability index": 3.04}, {"variant": "YKFRTKSRTWAGEKSKREMYSRLK", "protein stability index": 2.71}, {"variant": "TKFRTKSRTWAGEKSKREMYSRLK", "protein stability index": 4.1}, {"variant": "QKFRTKSRTWAGEKSKREMYSRLK", "protein stability index": 3.35}, {"variant": "LKFRTKSRTWAGEKSKREMYSRLK", "protein stability index": 1.95}, {"variant": "IKFRTKSRTWAGEKSKREMYSRLK", "protein stability index": 1.89}, {"variant": "FKFRTKSRTWAGEKSKREMYSRLK", "protein stability index": 2.37}, {"variant": "PKFRTKSRTWAGEKSKREMYSRLK", "protein stability index": 3.25}, {"variant": "DKFRTKSRTWAGEKSKREMYSRLK", "protein stability index": 3.83}, {"variant": "SKFRTKSRTWAGEKSKREMYSRLK", "protein stability index": 3.22}, {"variant": "NKFRTKSRTWAGEKSKREMYSRLK", "protein stability index": 2.7}, {"variant": "VKFRTKSRTWAGEKSKREMYSRLK", "protein stability index": 2.65}]}, {"variants_of": "B2", "test": "protein stability index of a GFP-peptide fusion (GPS, HEK-293T) (PSI 1-6); higher = more stable", "conditions": "c terminus: native", "values": [{"variant": "YINFRHLYKQRRRRYGQKKKKIK", "protein stability index": 1.58}, {"variant": "YINFRHLYKQRRRRYGQKKKKIV", "protein stability index": 2.58}, {"variant": "YINFRHLYKQRRRRYGQKKKKIW", "protein stability index": 2.25}, {"variant": "YINFRHLYKQRRRRYGQKKKKIE", "protein stability index": 1.04}, {"variant": "YINFRHLYKQRRRRYGQKKKKIP", "protein stability index": 2.07}, {"variant": "YINFRHLYKQRRRRYGQKKKKIT", "protein stability index": 3.73}, {"variant": "YINFRHLYKQRRRRYGQKKKKIS", "protein stability index": 1.48}, {"variant": "YINFRHLYKQRRRRYGQKKKKIC", "protein stability index": 1.05}, {"variant": "YINFRHLYKQRRRRYGQKKKKID", "protein stability index": 2.09}, {"variant": "YINFRHLYKQRRRRYGQKKKKIF", "protein stability index": 1.11}, {"variant": "YINFRHLYKQRRRRYGQKKKKNH", "protein stability index": 1.9}, {"variant": "YINFRHLYKQRRRRYGQKKKKMH", "protein stability index": 2.23}, {"variant": "YINFRHLYKQRRRRYGQKKKKYH", "protein stability index": 2.08}, {"variant": "YINFRHLYKQRRRRYGQKKKKLH", "protein stability index": 2.67}, {"variant": "YINFRHLYKQRRRRYGQKKKKQH", "protein stability index": 2.44}, {"variant": "YINFRHLYKQRRRRYGQKKKKHH", "protein stability index": 2.13}, {"variant": "YINFRHLYKQRRRRYGQKKKKWH", "protein stability index": 2.22}, {"variant": "YINFRHLYKQRRRRYGQKKKKTH", "protein stability index": 2.1}, {"variant": "YINFRHLYKQRRRRYGQKKKKPH", "protein stability index": 1.86}, {"variant": "YINFRHLYKQRRRRYGQKKKKRH", "protein stability index": 1.81}, {"variant": "YINFRHLYKQRRRRYGQKKKKFH", "protein stability index": 1.72}, {"variant": "YINFRHLYKQRRRRYGQKKKKVH", "protein stability index": 1.41}, {"variant": "YINFRHLYKQRRRRYGQKKKKSH", "protein stability index": 2.33}, {"variant": "YINFRHLYKQRRRRYGQKKKKGH", "protein stability index": 1.5}]}]}
